Experimental data taken from patent publication US20040248211A1, “ICAM-related protein” (priority 1992, published 2004).
Each block holds one substance with its values, some of them ahead of it.

Columns and labels:
[1] = target: LFA-1 (CD11a/CD18) on cells (human) (UniProt P20701); experiment: neutrophil adhesion to immobilized ICAM-R/Ig, mAb 15 µg/ml
[2] = target: ICAM-1/IgG chimera (UniProt P05362); experiment: adhesion of transfected CHO cells to immobilized chimera, with PMA
[3] = target: LFA-1 (CD11a/CD18) on cells (human) (UniProt P20701); experiment: SKW3 cell adhesion to plate-bound shICAM-R, peptide 1-2 mg/ml
[4] = target: LFA-1 (CD11a/CD18) on cells (human) (UniProt P20701); experiment: JY cell adhesion to shICAM-R, mAb 10 µg/ml

LFA-1 (CD11a/CD18) on cells (human), sequence (P20701 26-1170, chain 1 of 2): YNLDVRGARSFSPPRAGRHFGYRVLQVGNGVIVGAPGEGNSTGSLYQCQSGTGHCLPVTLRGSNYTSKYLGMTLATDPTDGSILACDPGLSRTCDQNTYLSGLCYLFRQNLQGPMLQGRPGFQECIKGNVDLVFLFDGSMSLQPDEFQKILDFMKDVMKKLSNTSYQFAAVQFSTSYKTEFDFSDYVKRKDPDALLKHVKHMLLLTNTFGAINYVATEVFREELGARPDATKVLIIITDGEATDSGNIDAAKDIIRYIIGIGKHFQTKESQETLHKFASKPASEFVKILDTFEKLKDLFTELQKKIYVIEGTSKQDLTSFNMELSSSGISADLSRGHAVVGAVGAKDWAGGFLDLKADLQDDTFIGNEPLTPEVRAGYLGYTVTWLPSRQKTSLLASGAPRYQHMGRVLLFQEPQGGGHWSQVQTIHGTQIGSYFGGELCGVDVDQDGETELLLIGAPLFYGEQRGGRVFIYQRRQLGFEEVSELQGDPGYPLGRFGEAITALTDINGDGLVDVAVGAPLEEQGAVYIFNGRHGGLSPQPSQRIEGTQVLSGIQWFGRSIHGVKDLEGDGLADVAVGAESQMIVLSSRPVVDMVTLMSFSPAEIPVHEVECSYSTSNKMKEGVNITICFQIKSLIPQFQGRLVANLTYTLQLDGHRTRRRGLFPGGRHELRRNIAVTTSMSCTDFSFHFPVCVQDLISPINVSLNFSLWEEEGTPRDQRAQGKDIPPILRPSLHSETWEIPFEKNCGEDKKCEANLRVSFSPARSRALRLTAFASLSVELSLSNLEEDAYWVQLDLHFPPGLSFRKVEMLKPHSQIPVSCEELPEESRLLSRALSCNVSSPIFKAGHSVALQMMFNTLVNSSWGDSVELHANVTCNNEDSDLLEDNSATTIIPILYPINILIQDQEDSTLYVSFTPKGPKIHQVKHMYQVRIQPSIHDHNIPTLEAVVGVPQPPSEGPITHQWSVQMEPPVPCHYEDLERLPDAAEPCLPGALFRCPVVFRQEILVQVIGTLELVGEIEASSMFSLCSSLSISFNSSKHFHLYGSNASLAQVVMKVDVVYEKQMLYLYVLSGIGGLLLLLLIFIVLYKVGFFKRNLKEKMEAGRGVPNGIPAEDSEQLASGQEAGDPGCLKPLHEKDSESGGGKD
LFA-1 (CD11a/CD18) on cells (human), sequence (P05107 23-769, chain 2 of 2, further chain): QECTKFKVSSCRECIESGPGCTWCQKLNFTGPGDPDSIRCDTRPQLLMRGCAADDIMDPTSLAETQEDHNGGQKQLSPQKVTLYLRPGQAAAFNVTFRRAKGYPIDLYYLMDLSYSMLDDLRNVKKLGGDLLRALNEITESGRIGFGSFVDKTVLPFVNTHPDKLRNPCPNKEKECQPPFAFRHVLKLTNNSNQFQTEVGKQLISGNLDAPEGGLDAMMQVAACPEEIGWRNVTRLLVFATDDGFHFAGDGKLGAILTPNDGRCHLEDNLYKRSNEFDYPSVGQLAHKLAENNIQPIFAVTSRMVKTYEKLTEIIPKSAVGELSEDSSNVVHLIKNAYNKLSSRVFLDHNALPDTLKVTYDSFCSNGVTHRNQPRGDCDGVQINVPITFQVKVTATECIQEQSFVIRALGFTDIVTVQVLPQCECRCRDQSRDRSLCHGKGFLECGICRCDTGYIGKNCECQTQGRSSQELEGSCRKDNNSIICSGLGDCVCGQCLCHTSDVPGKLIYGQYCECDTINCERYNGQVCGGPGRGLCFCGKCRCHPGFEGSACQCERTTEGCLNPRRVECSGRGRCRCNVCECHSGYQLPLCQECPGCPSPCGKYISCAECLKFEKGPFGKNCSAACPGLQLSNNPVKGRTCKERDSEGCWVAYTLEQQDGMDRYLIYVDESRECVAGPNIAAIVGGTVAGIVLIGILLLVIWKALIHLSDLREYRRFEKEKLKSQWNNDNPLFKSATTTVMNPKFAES
ICAM-1/IgG chimera, sequence (P05362 28-480 limits assumed, change not shown): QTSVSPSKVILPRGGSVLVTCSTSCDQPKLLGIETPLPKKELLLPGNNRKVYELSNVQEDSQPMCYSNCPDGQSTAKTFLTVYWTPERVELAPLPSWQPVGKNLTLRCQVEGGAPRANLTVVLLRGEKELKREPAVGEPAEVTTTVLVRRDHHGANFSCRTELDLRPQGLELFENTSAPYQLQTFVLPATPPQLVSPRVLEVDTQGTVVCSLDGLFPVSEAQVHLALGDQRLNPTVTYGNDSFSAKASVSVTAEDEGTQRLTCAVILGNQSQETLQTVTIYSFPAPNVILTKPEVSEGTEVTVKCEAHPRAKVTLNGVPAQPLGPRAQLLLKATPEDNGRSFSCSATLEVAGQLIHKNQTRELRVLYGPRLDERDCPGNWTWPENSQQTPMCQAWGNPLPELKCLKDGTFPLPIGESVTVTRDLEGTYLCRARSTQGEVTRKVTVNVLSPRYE
LFA-1 (CD11a/CD18) on cells, sequence (P20701 26-1170): as the sequence (P20701 26-1170, chain 1 of 2) above
LFA-1 (CD11a/CD18) on cells, sequence (P05107 23-769): as the sequence (P05107 23-769, chain 2 of 2, further chain) above

% inhibition of neutrophil binding to ICAM-R [1]: 50%
Substance: anti-CD11a monoclonal antibody TS1/22

fold increase in binding [2]: 2 to 3 fold
Substance: LFA-1 (CD11a/CD18) on cells (from UniProt P20701 26-1170; P05107 23-769) (receptor; other documents disagree on this pair)

% Inhibition of cell binding to shICAM-R [3]: 26%
Substance: ICAM-R domain 1 peptide NGSQI, residues 72-76

Inhibition (%) of CD18-dependent JY cell binding [4]: 100%
Substance: anti-CD18 monoclonal antibody 60.3
